B1: scFv p61.15 (scFv, V domains shown)
VH: QVQLVQSGAEVKKPGASVKVSCKASGYTFTNYFMHWVRQAPGQGLEWMGVFNPRGGSTTYAQKFQGRITMTSDPSTSTVYMELTSLTSEDTAMYYCARMGSVTGPVGHRWLDPWGQGTLVTVSS
VL: EIVLTQSPATLSLSPGERAALSCRASQSVDTYLAWYQQKPGQAPRLLIYDASTRAPGIPARFSGSGSGTDFTLTISSLEPEDFAVYYCQQRYNWPPITFGQGTRLEIK
notes: also called bnAb p61.15; nAb p61.15
B2: scFv p60.1 (scFv, V domains shown)
VH: EVQLQQSGPGLVKPSQTLSLICAISGDSVSTINAAWNWIRQSPSRGLEWLGRTYYRSKWYHEYATSVQGRIIITPDTSKNQFSLQLNSVTPEDSAVYFCARDRGPTPFDFWGQGTLVTVSS
VL: DIQMTQSPSSLSASVGDSVTITCRANQSISRSLNWYQQQPGKAPNLLIYAASHLHSGVSSRFSGSGSGADFALTISSLQPEDFATYHCQQSFVTPFTFGPGTKVDLK
notes: also called bnAb p60.1; nAb p60.1
B3: scFv p60.12 (scFv, V domains shown)
VH: QVQLVQSGAEVKKPGSSVKVSCKASGDTFSSYVISWVRQAPGQGLEWMGGIIPIIGTANYAPKFQDTVTITADKSTNTVYMEMRSLRSEDTAVYYCASNVQLQRRGNWFDPWGQGTLVTVSS
VL: QSALTQPASVSGSPGQSITISCTGTSSDIGDYNFVSWYQQHPGKAPKLMIFDVTNRPSGVSNRFSGSKSGNTASLTISGLQVEDEADYYCSSYTSTNTPVVFGGGTKLTVL
notes: also called bnAb p60.12; nAb p60.12
B4: scFv p60.15 (scFv, V domains shown)
VH: EVQLVQSGAELKKPGESLRISCKGSGYDFANYWIGWVRQMPGKGLEWMGIIYPRDSDIRYSPSFQGQVTISADKSISTAYLQLSSLKASDTAMYYCARHLRGLRLGELFPFDYWGQGTLVTVSS
VL: AIQLTQSPSSLSASVGDSVTITCRASQDIFSYLAWYQQKPGKAPKLLIYAASTLQSGVPSRFSGSGSGTDFTLTISSLQPEDFATYYCQQLNRYPFAFGPGTKVDIK
notes: also called bnAb p60.15; nAb p60.15
B5: murine bnAb 8G12 (antibody, V domains shown)
VH: QLQQSGPELVKPGASVKISCKASGYTFTDFNMHWVKQSHGKSLEWIGYIYPYNGITGQNQKFKSKATLTVDNSSSSAYMELRSLTSEDSAVYYCARERFGVGNNYAWFTYWGQGTLVTVSS
VL: DIQMTQSPASLSVSVGETVTITCRASENIYSNLVWYQQKQGKSPQVLVYAATNLPDGVPSRFSGSGSGTQYSLKINSLQSEDSGSYYCQHFWETPFTFGSGTKLEIK
notes: also called control bnAb 8G12
B6: p61.15 scFv (SPR analyte) (scFv, V domains shown)
VH: B1 VH
VL: B1 VL
notes: also called scFv-p61.15
B7: p61.15 IgG1 (antibody, V domains shown)
VH: B1 VH
VL: B1 VL
notes: also called nAb p61.15; bnAb p61.15
B8: p60.1 scFv (SPR analyte) (scFv, V domains shown)
VH: B2 VH
VL: B2 VL
notes: also called scFv-p60.1
B9: p60.12 scFv (SPR analyte) (scFv, V domains shown)
VH: B3 VH
VL: B3 VL
B10: p60.15 IgG1 (antibody, V domains shown)
VH: B4 VH
VL: B4 VL
notes: also called nAb p60.15; bnAb p60.15

Columns and labels:
Details in all cases: both partners purified
[1] = biological target: T1, non-glycosylated HEV GT 4 pORF2 P domain (Hepatitis E virus genotype 4, isolate …, UniProt Q9IVZ8, strain); test: SPR
T1 construct: also called HEV GT 4 P domain; source: Drosophila S2 cells, purified from cell lysates (Strep-Tactin XT, SEC); not shown: double strep tag, N-terminal, kept

[2] = biological target: T2, non-glycosylated HEV GT 2 pORF2 P domain (Hepatitis E virus genotype 2, isolate …, UniProt Q03500, strain); test: SPR
T2 construct: also called HEV GT 2 P domain; source: Drosophila S2 cells, purified from cell lysates (Strep-Tactin XT, SEC); not shown: double strep tag, N-terminal, kept

[3] = biological target: T3, non-glycosylated HEV GT 1 pORF2 P domain (Hepatitis E virus genotype 1, isolate …, UniProt P33426, strain); test: SPR
T3 construct: also called HEV GT 1 P domain; source: Drosophila S2 cells, purified from cell lysates (Strep-Tactin XT, SEC); not shown: double strep tag, N-terminal, kept

[4] = biological target: T4, non-glycosylated HEV GT 3 pORF2 P domain (Hepatitis E virus genotype 3, …); test: SPR
T4 construct: also called non-glycosylated GT 3 P domain; HEV GT3 P domain; not shown: double strep tag, N-terminal, kept

[5] = biological target: T5, non-glycosylated rat HEV pORF2 P domain (Rat hepatitis E virus, R68/DEU/2009 in …, strain); test: SPR
T5 construct: also called rat HEV P domain; source: Drosophila S2 cells, purified from cell lysates (Strep-Tactin XT, SEC); not shown: double strep tag, N-terminal, kept

[6] = biological target: T6, non-glycosylated HEV GT 4 pORF2 P domain (Hepatitis E virus genotype 4, isolate …, UniProt Q9IVZ8, strain); test: ELISA; plates coated with 100 ng P domain per well in PBS overnight at 4 °C; antibody (IgG) at 2 μg/ml, 1 h at room temperature; HRP-conjugated goat anti-human antibody
T6 construct: also called GT 4 P domain; not shown: double strep tag, N-terminal, kept

[7] = biological target: T7, non-glycosylated rat HEV pORF2 P domain (Rat hepatitis E virus, R68/DEU/2009 in …); test: as above
T7 construct: not shown: double strep tag, N-terminal, kept

[8] = biological target: T8, non-glycosylated HEV GT 3 pORF2 P domain dimer (amino acids 456-660), expressed in the cytosol (Hepatitis E virus genotype 3, isolate …, strain); test: as above
T8 construct: not shown: double strep tag, N-terminal, kept

[9] = biological target: T9, non-glycosylated HEV GT 2 pORF2 P domain (Hepatitis E virus genotype 2, isolate …, UniProt Q03500, strain); test: as above
T9 construct: also called GT 2 P domain; not shown: double strep tag, N-terminal, kept

[10] = biological target: T10, glycosylated HEV GT 3 pORF2 P domain dimer (amino acids 456-660), secreted, carrying a glycan at N562 (Hepatitis E virus genotype 3, isolate …, strain); test: SPR
T10 construct: not shown: double strep tag, N-terminal, kept

[11] = biological target: T8, non-glycosylated HEV GT 3 pORF2 P …; test: SPR
[12] = biological target: T10, glycosylated HEV GT 3 pORF2 P domain …; test: ELISA; plates coated with 100 ng P domain per well in PBS overnight at 4 °C; antibody (IgG) at 2 μg/ml, 1 h at room temperature; HRP-conjugated goat anti-human antibody
[13] = biological target: T7, non-glycosylated rat HEV pORF2 P domain; test: SPR

Binder | Kd [1] [nM] | koff [1] [s⁻¹] | Kd [2] [nM] | koff [2] [s⁻¹] | Kd [3] [nM] | koff [3] [s⁻¹] | binding result [7] | also measured
B1 | 0.154 | 0.000142 | 0.896 | 0.000585 | 1.51 | 0.000604 |  | Kd [4]: 0.0816 nM; koff [4]: 2.56e-05 s⁻¹
B2 | 0.0382 | 5.14e-05 | 0.128 | 8.16e-05 | 0.0238 | 2.56e-05 |  | Kd [5]: 4930 nM; koff [5]: 0.456 s⁻¹
B3 | 8.75 | 0.000609 | 0.509 | 2.96e-05 | 3.29 | 0.000325 |  | Kd [5]: 5590 nM; koff [5]: 0.246 s⁻¹
B4 |  |  |  |  |  |  |  | Kd [4]: 0.166 nM; koff [4]: 5.18e-05 s⁻¹
B5 |  |  |  |  |  |  | no binding | binding result [6]: binds; binding result [8]: binds; binding result [9]: binds
B6 |  |  |  |  |  |  |  | binding result [10]: binds; binding result [11]: binds
B7 |  |  |  |  |  |  | no binding (tested: 2 μg/ml) | binding result [12]: binds; binding result [8]: binds
B8 |  |  |  |  |  |  |  | fold lower affinity than to the other four P domains [13]: ~1000 fold
B9 |  |  |  |  |  |  |  | fold lower affinity than to the other four P domains [13]: ~1000 fold
B10 |  |  |  |  |  |  | no binding (tested: 2 μg/ml) | 

Source: article PMC11865592 (Nature Communications, 2025)
